The target in assay [1] is SARS-CoV-2 (BetaCoV/Wuhan-Hu-1/2019) prefusion-stabilized spike (S) protein / S ectodomain trimer (SARS-CoV-2 (BetaCoV/Wuhan-Hu-1/2019)) (UniProt P0DTC2). Kind of assay: SPR (Biacore T200), S ectodomain trimer captured, Fab as analyte. In general terms: In SPR one partner is held on a chip, and binding of the other changes the refractive index at the surface.
Assay [2] shares this target.

Where two headings read alike, the source gives them in different places. A value given as a limit tells only on which side of the number the result lay.

Sequence of antibody S2P6 (antibody 420 1 1), human monoclonal antibody expressed as recombinant human IgG1 (VH): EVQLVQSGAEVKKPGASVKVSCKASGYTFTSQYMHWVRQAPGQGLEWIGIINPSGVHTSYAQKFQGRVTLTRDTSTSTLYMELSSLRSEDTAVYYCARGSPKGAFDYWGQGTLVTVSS
Sequence of antibody S2P6 (antibody 420 1 1), human monoclonal antibody expressed as recombinant human IgG1 (VL): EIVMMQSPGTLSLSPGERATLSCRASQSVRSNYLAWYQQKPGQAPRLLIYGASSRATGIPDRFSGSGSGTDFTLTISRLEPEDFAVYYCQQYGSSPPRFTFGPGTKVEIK
Sequence of S2P6 Fab fragment (VH): as the sequence (VH) above
Sequence of S2P6 Fab fragment (VL): as the sequence (VL) above

The Kd is the free concentration of one partner at which half of the binding sites on the other are occupied at equilibrium, for simple one-to-one binding. Read a high Kd as weaker binding. Consider S2P6 Fab fragment, for which the dissociation constant (Kd) in assay [1] was determined as 7 nM.

By koff is commonly meant the rate constant with which the complex falls apart. A high value points to a short-lived complex. For orientation: kon means the rate constant with which the complex forms. Consider “antibody S2P6 (antibody 420 1 1), human monoclonal antibody expressed as recombinant human IgG1”, for which, in assay [2], the Kd is < 0.001 nM, the koff was < 1e-07 s⁻¹ and the kon is 453000 M⁻¹ s⁻¹.

The values are drawn from patent publication JP2023550785A.
